Literature values, collected in paper PMC7462287.

Biological target: Protective antigen heptamer (Bacillus anthracis) (UniProt P13423)
Experiment: SPR

Protective antigen heptamer (Bacillus anthracis), sequence (P13423 197-764): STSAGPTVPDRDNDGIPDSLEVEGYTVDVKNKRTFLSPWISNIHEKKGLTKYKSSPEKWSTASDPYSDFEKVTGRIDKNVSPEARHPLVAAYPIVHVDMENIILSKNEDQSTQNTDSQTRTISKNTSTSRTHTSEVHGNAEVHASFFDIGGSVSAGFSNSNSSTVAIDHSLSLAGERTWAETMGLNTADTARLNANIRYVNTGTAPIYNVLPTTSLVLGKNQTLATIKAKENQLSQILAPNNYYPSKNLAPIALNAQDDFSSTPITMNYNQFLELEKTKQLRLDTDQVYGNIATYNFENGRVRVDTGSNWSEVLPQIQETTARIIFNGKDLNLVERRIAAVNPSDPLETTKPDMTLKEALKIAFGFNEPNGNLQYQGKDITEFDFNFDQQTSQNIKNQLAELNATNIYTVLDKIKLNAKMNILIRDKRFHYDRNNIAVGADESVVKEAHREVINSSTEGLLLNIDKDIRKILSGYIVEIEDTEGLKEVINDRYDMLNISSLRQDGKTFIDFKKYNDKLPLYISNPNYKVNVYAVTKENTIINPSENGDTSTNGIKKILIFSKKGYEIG
Edema factor, sequence (P40136 34-800): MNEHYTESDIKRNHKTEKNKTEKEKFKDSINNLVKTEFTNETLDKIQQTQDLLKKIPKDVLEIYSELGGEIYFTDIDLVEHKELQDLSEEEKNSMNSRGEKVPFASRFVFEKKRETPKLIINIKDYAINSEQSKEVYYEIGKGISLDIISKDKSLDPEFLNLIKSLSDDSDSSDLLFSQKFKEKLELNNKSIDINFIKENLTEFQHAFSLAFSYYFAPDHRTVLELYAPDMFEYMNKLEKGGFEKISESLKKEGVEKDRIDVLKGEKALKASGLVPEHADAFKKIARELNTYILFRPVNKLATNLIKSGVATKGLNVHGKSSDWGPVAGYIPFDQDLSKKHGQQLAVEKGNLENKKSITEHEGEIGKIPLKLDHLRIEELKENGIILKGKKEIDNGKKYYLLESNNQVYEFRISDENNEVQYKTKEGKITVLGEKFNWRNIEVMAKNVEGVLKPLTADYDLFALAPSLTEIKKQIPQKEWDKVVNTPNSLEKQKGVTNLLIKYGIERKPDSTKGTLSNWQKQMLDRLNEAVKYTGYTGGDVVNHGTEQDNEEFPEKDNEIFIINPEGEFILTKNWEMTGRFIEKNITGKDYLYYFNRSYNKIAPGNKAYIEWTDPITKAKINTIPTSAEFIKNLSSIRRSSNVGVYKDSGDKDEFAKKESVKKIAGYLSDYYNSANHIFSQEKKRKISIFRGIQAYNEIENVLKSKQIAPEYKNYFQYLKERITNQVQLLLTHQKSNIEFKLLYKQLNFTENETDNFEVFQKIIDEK

For Edema factor (from UniProt P40136), the Kd is given as 1.5 nM.
